The values that follow come from US20140186348A1 (NOVELMED THERAPEUTICS, published 2014).

As a reminder, the Kd is the constant that tells how readily two partners part at equilibrium. Lower therefore signals a tighter complex.

Assay [1] addresses T1, human properdin (human, UniProt P27918 28-469).
T1 construct: also called antigen properdin
Put plainly: competition ELISA: varied antibody with 50 nM properdin on C3b-coated wells.

In assay [2] the target is T1, human properdin. As to the kind of experiment: properdin ELISA (FIG. 27).
Assay [3] has as its target T1, human properdin. Put plainly: cell-based or functional assay.
Assay [4] addresses T1, human properdin. As to the kind of experiment: properdin ELISA.

Residue numbers refer to the chain shown, from its start.

T1 sequence (P27918 28-469 limits assumed): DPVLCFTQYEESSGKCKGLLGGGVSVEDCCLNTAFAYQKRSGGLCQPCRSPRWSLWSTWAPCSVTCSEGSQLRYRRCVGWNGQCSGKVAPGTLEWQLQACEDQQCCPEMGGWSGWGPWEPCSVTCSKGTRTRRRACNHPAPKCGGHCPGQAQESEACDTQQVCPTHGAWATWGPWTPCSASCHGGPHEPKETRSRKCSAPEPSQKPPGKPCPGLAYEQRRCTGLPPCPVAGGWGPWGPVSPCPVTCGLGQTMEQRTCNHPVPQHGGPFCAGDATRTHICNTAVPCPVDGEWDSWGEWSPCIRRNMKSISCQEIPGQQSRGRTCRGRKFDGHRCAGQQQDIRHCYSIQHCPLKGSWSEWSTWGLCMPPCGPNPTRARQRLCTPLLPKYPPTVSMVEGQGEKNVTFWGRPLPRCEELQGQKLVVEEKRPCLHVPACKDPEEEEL

B1: NM9401-F(ab′)2 (other)
VH: QVQLQQSAPELARPGASVKMSCTASGYIFTNYPIHWVKQRPGQGLEWIGFIDPGGGYDEPDERFRDRATLTADKSSSTAYMQLSSLTSEDSAIYYCARRGGGYYLDYWGQGTTLTVSSAKTT
VL: DIQMTQTTSSLSASLGDRVTISCRASQDISFFLNWYQQKPDGTVKLLIYYTSRYHSGVPSRFSGSGSGTDFSLTINNLEQEDFATYFCQHGNTLPWTFGGGTKLEIKRADAAPTVSIFPPSSEQLTSGGASVVCFLNN
notes: F(ab′)2 fragment of the murine NM9401 IgG
As for B1, in the assay with human properdin [1], the “concentration inhibiting properdin binding to C3b (quantity not named, IC50 implied)” value was 29 nM and the “molar ratio of antibody to properdin” value is 0.5.

B2: BAP010hum03 (humanized anti-properdin monoclonal antibody) (antibody, V domains shown)
VH: EVQLVQSGAEVKKPGESLRISCKGSGYIFTNYPIHWIRQSPSRGLEWLGFIDPGGGYDEPDERFRDRVTISADKSISTAYLQWSSLKASDTAMYYCARRGGGYYLDYWGQG
VL: DIQMTQSPSSLSASVGDRVTITCRASQDISFFLNWYQQKPGKAPKLLIYYTSRYHSGVPSRFSGSGSGTEFTLTISSLQSEDFAVYYCQHGNTLPWTFGQG
notes: Labelled _HC and _LC; Expressed as human IgG; also called BAP010hum03_HC
As to B2, the binding result in the assay with human properdin [2] is “binds”.

B3: BAP010hum10 (humanized anti-properdin monoclonal antibody) (antibody, V domains shown)
VH: QVQLQESGPGLVKPSQTLSLTCTVSGYIFTNYPIHWVRQATGQGLEWMGFIDPGGGYDEPDERFRDRVTITADKSTSTAYMELSSLRSEDTAVYYCARRGGGYYLDYWGQG
VL: B2 VL with V58I, S60P, S67Y, L73F, Q79E, S80A, F83A, V85T
notes: Labelled _HC and _LC; Expressed as human IgG; also called BAP010hum10_HC
For B3, the binding result with human properdin [2] was “binds”.

B4: NM9401-IgG (murine anti-properdin monoclonal antibody, IgG1) (antibody, V domains shown)
VH: QVQLQQSAPELARPGASVKMSCTASGYIFTNYPIHWVKQRPGQGLEWIGFIDPGGGYDEPDERFRDRATLTADKSSSTAYMQLSSLTSEDSAIYYCARRGGGYYLDYWGQGTTLTVSS
VL: DIQMTQTTSSLSASLGDRVTISCRASQDISFFLNWYQQKPDGTVKLLIYYTSRYHSGVPSRFSGSGSGTDFSLTINNLEQEDFATYFCQHGNTLPWTFGGGTKLEIKR
On to B4, for which, in the assay with human properdin [3], the “erythrocyte lysis assay using rabbit erythrocytes, IC50” value is 20 to 30 nM.

B5: NM9401-Fab (Fab, V domains shown)
VH: B4 VH
VL: B4 VL
notes: Fab fragment of the murine NM9401 IgG
Turning to B5, in the assay with human properdin [1], the “concentration inhibiting properdin binding to C3b (quantity not named, IC50 implied)” value was determined as 72 nM and the “molar ratio of antibody to properdin” value stood at 1.2.

B6: BAP010-1 (chimeric anti-properdin IgG1) (antibody, V domains shown)
VH: B4 VH
VL: DIQMTQTTSSLSASLGDRVTISCRASQDISFFLNWYQQKPDGTVKLLIYYTSRYHSGVPSRFSGSGSGTDFSLTINNLEQEDFATYFCQHGNTLPWTFGGGTKLEIK
notes: Murine variable domains (heavy chain clone mH6-3g, light chain clone mK10) fused in frame to a human IgG1 constant region and a human kappa constant region; also called chimeric anti-properdin monoclonal antibody; recombinant antibody BAP010-1
The molecule B6 displayed a dissociation constant (Kd) with human properdin [4] of about 0.054 nM. The “erythrocyte lysis assay using rabbit erythrocytes, IC50” value with human properdin [3] was in the range of 20 to 30 nM.

B7: BAP010hum02 (humanized anti-properdin monoclonal antibody) (antibody, V domains shown)
VH: QVQLQESGPGLVKPSQTLSLTCTVSGYIFTNYPIHWVRQAPGKGLEWVSFIDPGGGYDEPDERFRDRVTISVDTSKNQFSLKLSSVTAADTAVYYCARRGGGYYLDYWGQG
VL: EIVLTQSPATLSLSPGERATLSCRASQDISFFLNWFQQRPGQSPRRLIYYTSRYHSGIPPRFSGSGYGTDFTLTINNIESEDAAYYFCQHGNTLPWTFGQG
notes: Labelled _HC and _LC; Expressed as human IgG from BioAtla's mammalian vector; also called BAP010hum02_HC
For the molecule B7, the binding result in the assay with human properdin [2] is listed as “binds”.
